The data set in a line: soluble on expression in E. coli; label from the status in PepcDB or PDB records.
For the sequence “MSELRVISLDEVSKHNWEDADQSCWIVISGKVYDVTKFLNEHPGGEEVITQLAGKDATVGFLDVGHSKDAIEMANEYLIGQLPESDVPKVETAAAKPSKNEKSSSLLNDFTEIMTSPTWTNFLIPTTMGLVIYAVYKCMFN”, the “soluble on expression in E. coli” value is given as “not soluble”.
Next, “MGSDKIHHHHHHMDWTNIPPLYALKAFESAAKHQSFTLAASELFISQSAISKHINTIEIFFGRKLFYRKGPKVFLTKEGESFAGDLRHAFEILSKACENIHRAGIVLTISSPYTFSIRQFIPVLRKYKNQDGFPIVTVETINDDYSHSIVNLKNHDATVKYGDGKFSDEWNCTLLSPECLIVVVSPKLLHLFEKDNRILIDLVYVKSRELDWFSWCEESRLKERFQVINKYEFESMDSAINAVIKGLGVAVVDIGMVCDELMDGVLLTPFKFSFYSGRGYYFLRGGDDDNYLSSLLECVRLDLSGRGLAELCFNDKCDMGNCRLAATKKITK”: “not soluble”; “MSLQWAKQSEQNVYSNRWFSVNLADVLLPDGRHLDHFLIRMRPVAVATVVNEADEVLLLWRHRFITDSWGWELAAGVVEDGEDVAVAAARELEEETGWRPGPLHHLMSVEPSNGLTDARHHVYWAEEGTYVGHPVDDFESERREWVPLKLVPDLVARGEVPAANMAAALLLLHHLRLGRDQEGHHHHHH”: “soluble”; “MDRRQRFEKYDWLISKTQSILKNYECPESCNASCCRHHIIDFRRKEYEKILKNVDKESANILKSNAVKSELEGCYKAIVGQCPLLTNSKCRIYNNRPEACRNFPFVIFPDPEAGFGLTLLLCPISVNIIQDYAQWYKSVNLTMYNQLTAVYEQYKNIGENNDFCIQMKEQNLDSFIEFLEKKLEHHHHHH”: “not soluble”.
Next, “MDYQLYTLPSGLHVVYKPHAGEVTYAGFAIGVGTRHESSRHHGLAHLTEHMLFKGTSLRNSLQIIRRMEEVGAELNAFTEKESTYVYCIFPKAHFNRATNLLFDIVQHSRFPEEELTKEKTVVIDEIDSYRDNPSELIFDEFENILFRHHPLGHNILGTEASVSRITGQIGRNFLRRHYRPDNMIFFLAGEADLSDWPLNPAEKVSIRNTDGTPLHTLREGFLPRTIRRHKDTYQHHILMGGPAYSLHDDRRIPLSLLNNILGGPGMNSRLNLSLREEHGYVYNVESNYTPYSDTGVFNIYLGCAPRYAEAAMELVRKELRYLIEHPLSPIELESAKRQFKGQLIVSADNKESTFLSLGKSMLLYGKYDPLSDIFHRIDAITSDRLREIAAEVLNPDSMLTLIYC”: “not soluble”; “MGSDKIHHHHHHMPGQLKVTLLDSPNPLSKANPIHLKPLVNHCMDCRVSGLCLPTGLPVDENSCLGALIGPRMRIRKGAALFNANDPLTMLYALRCGSFKTSLNTAEGQGVVINFWMPGDVIGLDAIATEHHVCDAIALEDSEVCPVPYRRLQTLAREFPDLQQSLNRLMSREIVREHGRVLMLCNLTAEQRLASFLVGLSRRFVSRGYSAHGFMLRMSREDMASYLGLRLETVCRSVARLRALGIVDLHGRLVEILDMPALMALEQGGGECEAKGP”: “not soluble”; “MTDAAIAEKDLGNAAYKQKDFEKAHVHYDKAIELDPSNITFYNNKAAVYFEEKKFAECVQFCEKAVEVGRETRADYKLIAKAMSRAGNAFQKQNDLSLAVQWFHRSLSEFRDPELVKKVKELEKQLKAAERLAYINPELAQEEKNKGNEYFKKGDYPTAMRHYNEAVKRDPENAILYSNRAACLTKLMEFQRALDDCDTCIRLDSKFIKGYIRKAACLVAMREWSKAQRAYEDALQVDPSNEEAREGVRNCLRSNDEDPEKAKERSLADPEVQEILRDPGMRMILEQMSNDPGAVREHLKNPEIFQKLMKLRDAGVIQMR”: “soluble”.
On to “KRFGWTNELMFLFAPIPWSRLPYHSIGYRASGRSYARKEHKPFRYNGFSPGIGINSCLWWKVSVRDEYIFRIGLNVGYEYMDQLYAYRHFKVNEEKPLSSLSQRLKHIGHIGLNFALSLN”, for which the “soluble on expression in E. coli” value is listed as “not soluble”.
Next, “EALSSKVQQLERSIGLKDLAMADLEQKVLEMEASTYDGVFIWKISDFPRKRQEAVAGRIPAIFSPAFYTSRYGYKMCLRIYLNGDGTGRGTHLSLFFVVMKGPNDALLRWPFNQKVTLMLLDQNNREHVIDAFRPDVTSSSFQRPVNDMNIASGCPLFCPVSKMEAKNSYVRDDAIFIKAIVDLTGL”: “soluble”.
With “MSLGCTNFIQVGTVLGAPNVFLIGDAREVGHQGYENILREAKKVLTFDLDEKLRGFKNIVVYPGTFDFEGIVKNLDSDAKITVDIAYDVNDADELSRVYGASHALAISTSSELFSSLALENLGPLLKACKTRSAKHLLLKENRGGSRLFDLESGESWEIPATLARTVNSVGVGDVYTAVFAALIDHGALTAALRGMQAATRYAQTTFPDDFKRDVQRDFKLTPDEVLSLGGVLLPWHDRPHFEIYLAAPDFSYMEKAEVDAAVEALLYHNFTVRRPVQDNGEACPGTPAEDLRSYYDRDVELLRRCSLVFAVPLNRDPGTLVEIGLAIAAGTPVVTYDPRQENNNTMVICGSDAYSDDLDQCLNSTFELLAKLREQAKEGHHHHHH”, the “soluble on expression in E. coli” value was “not soluble”.
On to “MNRLLNEKVEEFKKGVLKAGWFIEKMFRNSISSLVERNESLAREVIADEEVVDQMEVEIQEKAMEVLGLFSPIGKPLLTVTAGIRVAELIENIADKCHDIAKNVLELMEEPPLKPLEDIPAMANQTSEMLKFALRMFADVNVEKSFEVCRMDSKVDDLYEKVREELLLYMMESPKYVKRALLLLEIAGNIEIIADYATNIVEVSVYMVQGEAYKCYHDELLLFKKSGGVLFESSD”, for which the “soluble on expression in E. coli” value was “soluble”.
Turning to “MGGITMTAVVSNRDKINFHEVADHYHSNKIIFGIKFLKNWALERLASCAPVPSWRAKLHKMRGVNIGENVYIGYDVIFDRIHPEMITVGDYAEIGDRCILSAHSRGSLTTRQAYPRSIAPIKIGRGVSVNPGCIITQGVEIGDNSIIGVGSVVSRNISPNSLALGYPAKVIKKLDG”, the “soluble on expression in E. coli” value is recorded as “soluble”.
Regarding “MSLESIKKRAYEIENELGKEIEEVCNFIFNNPELGEEEYISSKYLVEKMKEYGFDTVYPYCNMETAFRAELGDNDGPTIAFLAEYDALPGYGENKEPAHACGHNWIAASTLGACIVLSKLKENFKGKIVLIGTPAEETTGGKCDLVKAGAFDDVDVSYQMHIEAFNNINCKALAIDSLEFSFEGVSAHAASHPHMGVNALDAVQLTFAGINALRQHVKSDVRIHGIVSNGGEAPNIVPEKAACKFFVRAAERSYLDEVTKKVINCAKGAELMTGAKLSYRYFENSFDNIINNKVLQKITKNNLIEAGITDILEGKDGPVGSTDIGNVSQVCPTMYTEIALDISPMVYVHEKEFLNYANSEEAYDKLHKAVKAMVGCALEIYLEDGLLDEIKKNHLNEGHHHHHH”, the “soluble on expression in E. coli” value is “soluble”.
Next, “MKLIPFPYPLNIGTDVVHLPRILRLINRPDYFHRFTRRILHEQEQRDFRTRFSLPPPSSGAEKTGLNPITPDMARWLAGRFAAKEAARKAAPAGASSLGWKDVIVRVGEADKGRPEIVYLDPMGCGETGGGRVGKLSISHDGDYVVATVLAAG”: “not soluble”; “MESTKSYDIPILRNVSRSFSVHYRDYLQRCGIFVPKEGNSSGPDAYVVFHNGQTRYVVGFSFKFYHKSEFSKRNIEEEAKKFFKGVVSVLNDESFSSVQLRFQFVMVVCTSYGRSVVFSSEEQNIVEDASYLVTEHSSGSTLNESSRSCLQLVIVSQRNLEMYLGRDNVETLRKIGEASREEFSKDFSVWCETVFESMSNEYVSPLEQSNVTLRVARNIRPRTNEENRMQIEELQTAMKVERSVAASSSLSSSFDWNTFLREYCGLSEEDVAYCLPKVEDIDMDELPAVTKEILRDLGIDKPALRLKIRSSIRSYLANER”: “soluble”; “MGSDKIHHHHHHMLRLITDFDGPIIDVSERYYRVYQFCLEKTRRPDQVVQELPKAEFWQLKRSRVPEKQIAFNSGLDEAQAQEFAQLRRQTVHTEAYFNYDTLAPGAVDALLKIQEAGIDLAVMTMRRVRELDYAFKKYDLGRFFPENRCYCLSNDYVKTRDIEDKPLLMARALKELPPAADTWMVGDTEADITAAKNYDIKVMAVESGIRDRTQLELYHPDLIVKDFSTAVDLVLKPKHLV”: “not soluble”.
As for “MGSDKIHHHHHHMVKIKGLNGNLVFIFGPGSFDEYLSFLEEKLTANKQLFSGSRVIFKGEELKKLSHSQIASLQELCLRHGVIMNNNAVTVNKGSSKDLVIYRNLRSGQKLRSEGSVIIWGDVHESAEILAAGDIIVLGKLDGIAHAGCYGDMNRLIFALSLSPGQIRIGDRLSRSPEDPDKSPHPEIAFWDGENICIKAYSSRSGLRG”, the “soluble on expression in E. coli” value was “not soluble”.

(Values after the DeepSol protein solubility set.)
